Results as given in patent US20240199759A1 (CYTOVIA THERAPEUTICS, published 2024).

Legend:
[1] = molecular target: T1, human NKp46 (form in the assay not stated) (human, UniProt O76036 22-255, limits assumed); assay: BIAcore
[2] = molecular target: T1, human NKp46 (form in the assay not …); assay: BIAcore; SE(KD) 2.20E-10
[3] = molecular target: human GPC3 (form in the assay not stated) (human, UniProt P51654 25-559, limits assumed); assay: method not stated
[4] = molecular target: T2, Human NKp46 antigen (Acro Biosystems) expressed on HEK293 cells or CHO cells (human, UniProt O76036 22-255); assay: ELISA on coated human NKp46 antigen, normalized binding curve
T2 construct: Bought
T2 sequence (O76036 22-255 limits assumed): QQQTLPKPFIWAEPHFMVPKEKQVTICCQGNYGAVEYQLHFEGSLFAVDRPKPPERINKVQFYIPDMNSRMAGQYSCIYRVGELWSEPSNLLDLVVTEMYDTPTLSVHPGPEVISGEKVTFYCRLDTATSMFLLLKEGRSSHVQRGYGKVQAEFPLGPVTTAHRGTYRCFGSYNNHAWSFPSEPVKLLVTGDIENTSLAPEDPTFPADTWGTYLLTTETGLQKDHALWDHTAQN

T1 sequence (O76036 22-255 limits assumed): as above
Chain of human GPC3 (form in the assay not stated) (P51654 25-559 limits assumed): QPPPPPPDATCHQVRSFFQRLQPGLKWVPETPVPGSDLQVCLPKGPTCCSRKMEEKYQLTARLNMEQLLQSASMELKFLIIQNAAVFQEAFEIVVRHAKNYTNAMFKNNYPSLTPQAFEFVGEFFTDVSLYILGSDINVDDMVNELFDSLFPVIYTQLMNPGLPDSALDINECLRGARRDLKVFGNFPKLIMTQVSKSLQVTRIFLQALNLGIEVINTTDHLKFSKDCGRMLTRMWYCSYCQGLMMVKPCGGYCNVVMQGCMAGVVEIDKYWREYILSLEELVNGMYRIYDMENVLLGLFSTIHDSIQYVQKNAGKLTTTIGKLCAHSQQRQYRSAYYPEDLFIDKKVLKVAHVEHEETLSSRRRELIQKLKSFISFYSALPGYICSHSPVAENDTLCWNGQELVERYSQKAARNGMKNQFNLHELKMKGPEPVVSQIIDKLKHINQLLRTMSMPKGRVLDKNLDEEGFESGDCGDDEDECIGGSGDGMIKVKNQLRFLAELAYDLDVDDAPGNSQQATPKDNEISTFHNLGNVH

B1: mouse anti-NKp46 monoclonal antibody 09 (antibody, V domains shown)
VH: EVQLQQSGPELVKPGTSVKISCKTSGYTFTEYSMHWVKQSHGKSLEWFGGISPNSGGTSYNQKFKGKATLTVDKSSSTAYMELRSLTSEDSAVYYCARRDFHSSFDYWGQGTTLTVSS
VL: DIVMTQSPATLSVTPGDRVSLSCRASQSISDYLHWFQQKSHESPRLLIKYASQSISGIPSRFSGSGSGSDFTLSINSVEPEDVGVYYCQNGHSFPLTFGPGTKLELK
notes: Mouse hybridoma antibody raised in NKp46-deficient mice against NKp46-Ig; also called 09 antibody; mAb 09
kon [1]: 6.22e+07 M⁻¹ s⁻¹

B2: mouse anti-NKp46 monoclonal antibody 12 (antibody, V domains shown)
VH: EVQLQQSGPELVKPGTSVKISCKTSGYTFTEYSMHWVKQSHGKSLEWFGGISPNSGGTSYNQKFKGKATLTVDKSSSTAYMELRSLTSEDSAVYYCARRDFHSSFDYWGQGTTLTVSS
VL: DIVLTQSPATLSVTPGNSVSLSCRASQSISDYLHWFQQKSHESPRLLIKYASQSISGIPSRFSGSGSGSDFTLSINSVEPEDVGVYYCQNGHSFPLTFGPGTKLELK
notes: Mouse hybridoma antibody; also called 12 antibody; mAb 12
Kd [2]: 1.67 nM

B3: NKE1 (GPC3/NKp46/wt_IgG1), FLEX-NK tetravalent NKp46 engager directed against GPC3 (bispecific antibody)
heavy: not shown
light 1: DIVMTQSPATLSLSPGERATLSCRASQSISDYLHWFQQKPHESPRLLIKYASQSISGIPARFSGSGSGSDFTLTISSLEPEDFAVYYCQNGHSFPLTFGPGTKVDIKRTVAAPAVFIFPPSDEQLKSGTASVVCLLKNFYPREAKVQWKVDNALQSGNSQESVTEQDSKDSTYSLSSTLTLSKADYEKHKVYACEVTHQGLSSPVTKSFNRGEC
light 2: not shown
notes: Tetravalent; also called wildtype NKE1; copies: 2 + 2 + 2
fold higher affinity compared to human NKp46 [3]: ~50 fold

B4: humanized 09 anti-NKp46 antibody (antibody, IgG4, V domains shown)
VH: EVQLQQSGAEVKKPGSSVKVSCKTSGYTFTEYSMHWVRQAPGKSLEWFGGISPNSGGTSYNQKFKGRATLTVDKSSSTAYMELSSLRSEDTAVYYCARRDFHSSFDYWGQGTTVTVSS
VL: DIVMTQSPATLSLSPGERATLSCRASQSISDYLHWFQQKPHESPRLLIKYASQSISGIPARFSGSGSGSDFTLTISSLEPEDFAVYYCQNGHSFPLTFGPGTKVDIK
notes: Humanized with an IgG4 framework; ELISA used MAbs with humanized variable and mutated IgG4, kappa light chain detected; also called 09 antibody humanized
Kd [4]: ~0.027 nM

B5: humanized 12 anti-NKp46 antibody (antibody, IgG4, V domains shown)
VH: EVQLQQSGAEVKKPGSSVKVSCKTSGYTFTEYSMHWVRQAPGKSLEWFGGISPNSGGTSYNQKFKGRATLTVDKSSSTAYMELSSLRSEDTAVYYCARRDFHSSFDYWGQGTTVTVSS
VL: DIVLTQSPATLSLSPGERATLSCRASQSISDYLHWFQQKPHESPRLLIKYASQSISGIPARFSGSGSGSDFTLTISSLEPEDFAVYYCQNGHSFPLTFGPGTKVDIK
notes: Humanized with an IgG4 framework; ELISA used MAbs with humanized variable and mutated IgG4, kappa light chain detected; also called 12 antibody humanized
Kd [4]: ~0.025 nM
